This test concerns the target T1, Flag-TNFR1 (UniProt P19438 30-455, limits assumed).
T1 construct: whole, on cells; The receptor sat on the membrane of transfected HEK293 cells; not shown: Flag tag
T1 sequence (looked up): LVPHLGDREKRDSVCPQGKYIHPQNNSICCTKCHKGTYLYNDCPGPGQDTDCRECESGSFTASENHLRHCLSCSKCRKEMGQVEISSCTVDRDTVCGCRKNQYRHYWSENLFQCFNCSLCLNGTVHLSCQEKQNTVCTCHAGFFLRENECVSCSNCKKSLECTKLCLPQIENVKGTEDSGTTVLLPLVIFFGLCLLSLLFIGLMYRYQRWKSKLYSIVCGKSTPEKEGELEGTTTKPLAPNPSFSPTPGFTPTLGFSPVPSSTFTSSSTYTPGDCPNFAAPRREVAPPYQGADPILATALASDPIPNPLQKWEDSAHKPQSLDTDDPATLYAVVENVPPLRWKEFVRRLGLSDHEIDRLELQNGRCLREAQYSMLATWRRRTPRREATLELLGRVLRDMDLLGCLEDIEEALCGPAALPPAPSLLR
The experiment in a line: co-immunoprecipitation of truncated mutants co-transfected with TNFR1. The method, then:
The cells were washed with RIPA buffer, and protein-A/G-agarose beads (Santa Cruz) were added in an amount of 20 μL/tube to perform immunoprecipitation. According to the molecular weights of the truncated mutants, […] 15% SDS-PAGE gel electrophoresis was carried out, followed by Western blotting with an Myc antibody (FIG. 9).

B1: truncated mutant consisting of an IGFBP5 N-terminal domain (other)
chain: LGSFVHCEPCDEKALSMCPPSPLGCELVKEPGCGCCMTCALAEGQSCGVYTERCAQGLRCLPRQDEEKPLHALLHGRGVC
notes: not shown: Myc tag from vector pSecTaq2/Hygro A
Consider B1, for which the binding result is recorded as “no binding”.

B2: truncated mutant consisting of an IGFBP5 C-terminal domain (other)
chain: QGPCRRHMEASLQELKASPRMVPRAVYLPNCDRKGFYKRKQCKPSRGRKRGICWCVDKYGMKLPGMEYVDGDFQCHTFDSSNVE
notes: as for B1
Regarding B2, the binding result was “no binding”.

Source of the values: patent US20120046217A1 (SUNGKYUNKWAN UNIVERSITY FOUNDATION FOR CORPORATE …, published 2012).
